Results reported in article PMC6504953, “Cauliflower mosaic virus transactivator protein (TAV) can suppress nonsense-mediated decay by targeting VARICOSE, a scaffold protein of the decapping complex” (Scientific Reports, 2019).

Biological target: T1, Cauliflower mosaic virus translation transactivator/viroplasmin (TAV), strain CM1841, fused to the Gal4 … (Cauliflower mosaic virus (strain CM1841), UniProt P03558 1-520)
T1 sequence: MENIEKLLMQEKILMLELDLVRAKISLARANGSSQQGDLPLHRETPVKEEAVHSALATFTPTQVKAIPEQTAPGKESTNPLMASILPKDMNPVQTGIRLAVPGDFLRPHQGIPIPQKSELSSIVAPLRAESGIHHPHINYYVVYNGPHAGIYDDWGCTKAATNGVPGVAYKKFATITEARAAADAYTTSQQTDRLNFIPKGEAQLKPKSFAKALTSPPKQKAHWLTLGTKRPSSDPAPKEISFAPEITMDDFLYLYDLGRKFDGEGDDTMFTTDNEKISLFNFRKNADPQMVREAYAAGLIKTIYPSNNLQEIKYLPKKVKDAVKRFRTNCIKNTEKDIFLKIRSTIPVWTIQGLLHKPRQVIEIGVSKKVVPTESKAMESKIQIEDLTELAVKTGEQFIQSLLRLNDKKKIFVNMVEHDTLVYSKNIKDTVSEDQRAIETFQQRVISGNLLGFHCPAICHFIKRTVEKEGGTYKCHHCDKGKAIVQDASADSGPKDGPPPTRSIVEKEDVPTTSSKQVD
Assay: cell-based or functional assay

B1: VARICOSE (VCS), entire protein, fused to the Gal4 activation domain (natural protein, A. thaliana, UniProt Q9LTT8 1-1344, looked up)
chain: MASSPGNTNPHNTPPFDLGILFKPSSNPYPPPAASYPPPTGPFLHNQYDQQHYAPPGISAQPSPVTQQQQDVSSSSAATNLHPQRTLSYPTPPLNLQSPRSNHNPGTHILALLNNTNNGAPVANQEPSHQLPVVNHNEIARSFPGGSGPIRVPSCKLPKGRRLIGEHAVYDVDVRLQGEIQPQLEVTPITKYGSDPQLVVGRQIAVNKVYICYGLKGGNIRVLNINTALRSLFRGHSQRVTDMAFFAEDVDMLASVSLDGKVFVWKISEGSEGEDQPQITGKIVLALQILGEEDTKHPRVCWHCHKQEILVVSIGKHVLRIDTTKVGRGEVFSAEAPLQCPLDKLIDGVQIVGKHDGEVTDLSMCQWMTTRLVSSSVDGTIKIWQDRKAQPLVVLRPHDGHPVSSATFVTSPERPDHIILITGGPLNREMKIWVSAGEEGWLLPADAESWRCTQTLDLKSSTEPRAEEAFFNQVIALSEAGLLLLANAKRNALYAVHLDYGSSPVGTRMDYLSEFTVTMPILSFIGTNDPPEEPIVKVYCVQTLAIQQYTLDLCLCLPPPIENMGLEKSDSSVSREANLVEGMSEPSGLKPTDLPSVDSVPKPSIIVNRSESANKLSFPSAEATSQAIVPPNGEPKTSGLPSQTSGAGSAYATLPQLPLSPRLSSKLSGYHTPVEAIEPVIPHHELGGKTPSADYSVDRQMDAVGERNLDVSSVEEISRSKDSNVTPDDDVSGMRSPSAFFKHPTHLVTPSEILMGVSSAEASITTEDRRDRDANIQDVNNDPRDTEVEVKEISEARSTQNGEINDHDETENCTSENREKVFCSQVSNLSTEMARDCYPSTEGTFIPGESKAYGQPIKAGDESGVDSRGGPAKLLKGKKQKAKNSQGPGLSSTSSNVANLADSFNEQSQSLSHPMTDLLPQLLAMQETMNQVMASQKEMQRQLSNAATGPIGKESKRLEVALGRMIEKSSKSNADALWARIQEETVKNEKALRDHAQQIVNATTNFMSKELNAMFEKTIKKELAAIGPALARSVVPVIEKTVSSAITESFQRGIGDKAVNQLDKSVNIKLEATVARQIQAQFQTSGKQALQEGLRSSVESSVIPSFEKACKAMFDQIDSAFQKGIAEHTNAAQQRFDSGHSQLAHTLKESITSASSVAQALSRELAETQRNLLALAAAGANSGGSNSLVTQLSGGPLGALLEKVEAPMDPTTELSRLISERKYEESFTSALQRSDVSIVSWLCSQVDLRGLLAMNPLPLSQGVLLSLLQQLACDISKDTSRKLAWMTDVVAAINPSDQMIAVHARPIFEQVYQILHHHRNAPGSDVSAIRLIMHVINSMLMGCK
- GFPabc mRNA level by qRT-PCR in N. benthamiana leaves co-infiltrated with pGFPabc, pVCS and pTAV against pTAV alone: 3 fold
